Measured values taken from patent US20230134571A1 (INTERNATIONAL AIDS VACCINE INITIATIVE, published 2023).

Legend:
Assay in all cases: cell-based or functional assay
[1] = target: HIV Env, isolate CA240_A5.5 (HIV)
[2] = target: HIV Env, isolate 20915593 (HIV)
[3] = target: HIV Env, isolate Me178_G6.16 (HIV)
[4] = target: HIV Env, isolate ZM197M.PB7 (HIV)
[5] = target: HIV Env, isolate 6022.v7.c24 (HIV)
[6] = target: HIV Env, isolate CeCAP177_1A3 (HIV)
[7] = target: HIV Env, isolate Ko459_T68_4 (HIV)
[8] = target: HIV Env, isolate CH0505.w4.3 (HIV)
[9] = target: HIV Env, isolate ZM215F.PB8 (HIV)
[10] = target: HIV Env, isolate 722_G4_16 (HIV)
MuLV (Neg. Control) = target: MuLV (Neg. Control)
[11] = target: HIV Env, isolate CeCAP210_TA5 (HIV)
[12] = target: HIV Env, isolate 933.v4.c4 (HIV)
[13] = target: HIV Env, isolate 20104663_E11_D2 (HIV)
[14] = target: HIV Env, isolate 704010042 (HIV)
[15] = target: HIV Env, isolate TRP290.2.00_23_6 (HIV)
[16] = target: HIV Env, isolate 234-F1-16-57 (HIV)
[17] = target: HIV Env, isolate ZM106F.PB9 (HIV)
[18] = target: HIV Env, isolate So431_C1_1 (HIV)
[19] = target: HIV Env, isolate CAP266.2.00_E9_h6 (HIV)
[20] = target: HIV Env, isolate CT966_E1-7 (HIV)
[21] = target: HIV Env, isolate X1193_C1 (HIV)
HIV Env, isolate 246FC1G = HIV Env, isolate 246FC1G (HIV)
HIV Env, isolate CNE52 = HIV Env, isolate CNE52 (HIV)
[22] = target: HIV Env, isolate 231965.c01 (HIV)
[23] = target: HIV Env, isolate Ce0682_E4 (HIV)
[24] = target: HIV Env, isolate HIV-16845-2.22 (HIV)
[25] = target: HIV Env, isolate 6952.v1.c20 (HIV)
[26] = target: HIV Env, isolate SC05_8C11_2344 (HIV)

B1: ePGDM9 (antibody, V domains shown)
VH: QAQLVQSGPEVRKPGTSVKVSCKNPGNTLTTYDLHWVRQVPGQGLQWMGWISHEGDKKVIVERFKAKVTIDWDRSTNTAYLQLSGLTSEDTAVYYCAKGSKHRLRDYALYDEDGALNWAVDVDYLANLEFWGQGTAVTVSS
VL: DIVLTQSPLSLSVTPGESASISCKSSQSLIHGDRNNYLAWYVQKPGRSPQLLIDLASERASGVPDRFSGSGSRKDFTLKISRVETEDVGTYYCMQGRESPWTFGQGTKVDIK
For B1, the “IC50” value [1] was greater than 50 µg/mL, the “IC80” value [1] was greater than 50 µg/mL and the “IC50” value [2] was 4 ng/mL. For the same binder, the “IC80” value [2] was 0.015 µg/mL, the “IC50” value [3] was 6 ng/mL and the “IC80” value [3] was 0.031 µg/mL. For the same binder, the “IC50” value [4] was 0.017 µg/mL, the “IC80” value [4] was 0.05 µg/mL and the “IC50” value [5] was greater than 50 µg/mL. The “IC80” value [5] was greater than 50 µg/mL, the “IC50” value [6] was 0.153 µg/mL and the “IC80” value [6] was 1.06 µg/mL. The “IC50” value [7] was 3 ng/mL, the “IC80” value [7] was 0.126 µg/mL and the “IC50” value [8] was 1 ng/mL. For the same binder, the “IC80” value [8] was 0.011 µg/mL, the “IC50” value [9] was less than 0.6 ng/mL and the “IC80” value [9] was 7 ng/mL. For the same binder, the “IC50” value [10] was 0.198 µg/mL, the “IC80” value [10] was 0.585 µg/mL and the “IC50” value (MuLV (Neg. Control)) was greater than 50 µg/mL. The “IC80” value (MuLV (Neg. Control)) was greater than 50 µg/mL, the “IC50” value [11] was 9 ng/mL and the “IC80” value [11] was 0.073 µg/mL. For the same binder, the “IC50” value [12] was greater than 50 µg/mL, the “IC80” value [12] was greater than 50 µg/mL and the “IC50” value [13] was less than 0.6 ng/mL. The “IC80” value [13] was 1 ng/mL, the “IC50” value [14] was less than 0.6 ng/mL and the “IC80” value [14] was less than 0.6 ng/mL. The “IC50” value [15] was 0.012 µg/mL, the “IC80” value [15] was 0.06 µg/mL and the “IC50” value [16] was less than 0.6 ng/mL. The “IC80” value [16] was 2 ng/mL, the “IC50” value [17] was 7 ng/mL and the “IC80” value [17] was 0.024 µg/mL. The “IC50” value [18] was greater than 50 µg/mL, the “IC80” value [18] was greater than 50 µg/mL and the “IC50” value [19] was 8 ng/mL. The “IC80” value [19] was 0.037 µg/mL, the “IC50” value [20] was less than 0.6 ng/mL and the “IC80” value [20] was 3 ng/mL. For the same binder, the “IC80 (µg/ml) with constrains” value [21] was 0.158 µg/mL, the “IC80 (µg/ml) with constrains” value (HIV Env, isolate 246FC1G) was greater than 100 µg/mL and the “IC80 (µg/ml) with constrains” value (HIV Env, isolate CNE52) was 7.39 µg/mL. For the same binder, the “IC80 (µg/ml) with constrains” value [22] was 0.037 µg/mL, the “IC80 (µg/ml) with constrains” value [23] was 0.022 µg/mL and the “IC80 (µg/ml) with constrains” value [24] was greater than 100 µg/mL. For the same binder, the “IC80 (µg/ml) with constrains” value [25] was 0.21 µg/mL and the “IC80 (µg/ml) with constrains” value [26] was 4.25 µg/mL.
